Key:
AncSZ = assay: phosphorylation enrichment, bacterial display (enrichment ratio); higher = better substrate or ligand; peptides without Tyr show the background
EPHB1 = EPHB1 (UniProt P54762); assay: as above
EPHB2 = EPHB2 (UniProt P29323); assay: as above
FGFR1 = FGFR1 (UniProt P11362); assay: as above
FGFR3 = FGFR3 (UniProt P22607); assay: as above
Fer (mouse) = assay: as above
Fes = Fes (UniProt P07332); assay: as above
Fyn = Fyn (UniProt P06241); assay: as above
Hck = Hck (UniProt P08631); assay: as above
Sequence of Hck (P08631 whole entry, looked up): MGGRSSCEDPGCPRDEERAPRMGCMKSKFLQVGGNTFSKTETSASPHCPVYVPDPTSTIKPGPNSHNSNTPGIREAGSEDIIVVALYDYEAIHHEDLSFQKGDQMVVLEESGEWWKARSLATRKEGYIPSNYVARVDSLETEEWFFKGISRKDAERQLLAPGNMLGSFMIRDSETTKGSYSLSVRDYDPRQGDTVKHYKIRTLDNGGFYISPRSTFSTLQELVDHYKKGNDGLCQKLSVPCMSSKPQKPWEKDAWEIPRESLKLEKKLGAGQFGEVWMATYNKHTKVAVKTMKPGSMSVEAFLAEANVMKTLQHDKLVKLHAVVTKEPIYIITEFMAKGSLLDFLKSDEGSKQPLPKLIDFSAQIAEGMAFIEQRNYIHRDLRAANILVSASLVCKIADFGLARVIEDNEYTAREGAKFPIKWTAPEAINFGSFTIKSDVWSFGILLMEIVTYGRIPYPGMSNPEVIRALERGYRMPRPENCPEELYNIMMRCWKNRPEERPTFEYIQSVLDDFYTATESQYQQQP

Jak2 = Jak2 (UniProt O60674); assay: as above
Sequence of Jak2 (O60674 whole entry, looked up): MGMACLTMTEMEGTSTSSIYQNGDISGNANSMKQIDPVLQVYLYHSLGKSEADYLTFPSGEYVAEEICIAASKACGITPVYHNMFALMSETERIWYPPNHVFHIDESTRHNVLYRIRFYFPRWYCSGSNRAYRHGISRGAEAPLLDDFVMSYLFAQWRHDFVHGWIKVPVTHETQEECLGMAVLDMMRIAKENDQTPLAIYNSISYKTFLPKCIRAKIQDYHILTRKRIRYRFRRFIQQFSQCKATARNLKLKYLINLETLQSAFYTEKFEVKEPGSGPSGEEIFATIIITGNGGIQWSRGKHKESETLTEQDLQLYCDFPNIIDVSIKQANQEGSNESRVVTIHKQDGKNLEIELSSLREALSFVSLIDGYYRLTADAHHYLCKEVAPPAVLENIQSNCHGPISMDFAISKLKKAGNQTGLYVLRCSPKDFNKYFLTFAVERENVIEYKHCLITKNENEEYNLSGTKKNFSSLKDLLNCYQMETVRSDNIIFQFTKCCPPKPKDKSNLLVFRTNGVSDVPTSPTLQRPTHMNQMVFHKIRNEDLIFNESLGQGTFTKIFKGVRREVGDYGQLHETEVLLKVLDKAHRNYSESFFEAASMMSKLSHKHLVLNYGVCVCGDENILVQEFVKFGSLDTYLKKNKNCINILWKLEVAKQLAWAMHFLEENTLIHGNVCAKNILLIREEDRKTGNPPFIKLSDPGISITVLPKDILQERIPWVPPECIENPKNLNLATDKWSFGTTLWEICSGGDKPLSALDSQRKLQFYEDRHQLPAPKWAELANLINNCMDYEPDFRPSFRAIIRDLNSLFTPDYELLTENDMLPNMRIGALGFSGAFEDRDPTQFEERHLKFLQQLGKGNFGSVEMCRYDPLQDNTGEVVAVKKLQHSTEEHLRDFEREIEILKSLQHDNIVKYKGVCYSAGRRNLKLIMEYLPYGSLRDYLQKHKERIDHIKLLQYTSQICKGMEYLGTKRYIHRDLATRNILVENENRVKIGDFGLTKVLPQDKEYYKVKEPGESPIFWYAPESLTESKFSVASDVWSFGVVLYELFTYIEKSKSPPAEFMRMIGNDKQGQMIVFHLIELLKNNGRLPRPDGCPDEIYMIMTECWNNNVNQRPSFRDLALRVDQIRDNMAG

MERTK = MERTK (UniProt Q12866); assay: as above
Sequence of MERTK (Q12866 whole entry, looked up): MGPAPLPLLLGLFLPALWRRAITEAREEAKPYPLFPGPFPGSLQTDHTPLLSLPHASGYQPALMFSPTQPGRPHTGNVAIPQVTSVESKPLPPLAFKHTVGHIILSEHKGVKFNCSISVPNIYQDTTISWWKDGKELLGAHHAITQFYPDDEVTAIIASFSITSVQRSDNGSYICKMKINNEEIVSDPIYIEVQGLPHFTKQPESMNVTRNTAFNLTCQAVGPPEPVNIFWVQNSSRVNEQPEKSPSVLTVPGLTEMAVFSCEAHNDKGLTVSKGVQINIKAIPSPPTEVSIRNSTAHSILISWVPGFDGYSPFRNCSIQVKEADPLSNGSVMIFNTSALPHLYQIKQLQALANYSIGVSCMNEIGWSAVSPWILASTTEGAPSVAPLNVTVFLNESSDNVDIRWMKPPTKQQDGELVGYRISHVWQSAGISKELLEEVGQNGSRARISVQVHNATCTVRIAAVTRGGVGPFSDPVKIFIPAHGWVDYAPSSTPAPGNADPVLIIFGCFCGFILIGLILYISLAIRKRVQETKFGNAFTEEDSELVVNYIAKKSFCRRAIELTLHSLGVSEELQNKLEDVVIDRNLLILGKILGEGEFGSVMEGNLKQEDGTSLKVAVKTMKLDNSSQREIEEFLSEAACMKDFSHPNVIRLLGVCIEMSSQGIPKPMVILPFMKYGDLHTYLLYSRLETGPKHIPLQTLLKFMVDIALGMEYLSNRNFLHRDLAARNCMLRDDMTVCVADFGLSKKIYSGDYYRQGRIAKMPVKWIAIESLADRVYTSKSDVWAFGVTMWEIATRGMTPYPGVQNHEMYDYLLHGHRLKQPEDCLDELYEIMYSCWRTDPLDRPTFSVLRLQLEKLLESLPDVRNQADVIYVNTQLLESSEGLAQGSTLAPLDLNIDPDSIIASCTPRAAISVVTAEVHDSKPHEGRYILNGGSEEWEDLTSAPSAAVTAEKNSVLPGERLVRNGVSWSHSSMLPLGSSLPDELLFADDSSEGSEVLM

c-Abl (mouse) = assay: as above
c-Src = assay: as above
Grb2 SH2 = Grb2 SH2 (UniProt P62993); assay: SH2 binding enrichment of the phosphorylated peptide, bacterial display (enrichment ratio); higher = better substrate or ligand; peptides without Tyr show the background
Sequence of Grb2 SH2 (P62993 whole entry, looked up): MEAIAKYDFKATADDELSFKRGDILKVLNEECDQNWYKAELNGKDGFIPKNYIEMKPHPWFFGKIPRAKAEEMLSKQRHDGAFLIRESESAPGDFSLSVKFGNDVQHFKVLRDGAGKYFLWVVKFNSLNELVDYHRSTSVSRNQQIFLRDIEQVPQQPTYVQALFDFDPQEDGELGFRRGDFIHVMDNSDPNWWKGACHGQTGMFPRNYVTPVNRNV

SHP2-C SH2 = assay: as above
c-Src SH2 = assay: as above
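Wherever SH2 binding enrichment of the phosphorylated peptide, bacterial display is given: peptide library displayed on the E. coli surface as eCPX fusions, selected cells deep-sequenced, score is each peptide's frequency after selection divided by its frequency in the input.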
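Wherever phosphorylation enrichment, bacterial display is given: 11-residue human phosphosite peptides and single-mutation variants displayed on the E. coli surface, counted by deep sequencing, each peptide's frequency after selection divided by its frequency in the unselected input library; frequency after pTyr selection over input frequency; kinase dosed for 20-30% of maximal phosphorylation in three min.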

Sequence of FGFR1 (P11362 whole entry, looked up): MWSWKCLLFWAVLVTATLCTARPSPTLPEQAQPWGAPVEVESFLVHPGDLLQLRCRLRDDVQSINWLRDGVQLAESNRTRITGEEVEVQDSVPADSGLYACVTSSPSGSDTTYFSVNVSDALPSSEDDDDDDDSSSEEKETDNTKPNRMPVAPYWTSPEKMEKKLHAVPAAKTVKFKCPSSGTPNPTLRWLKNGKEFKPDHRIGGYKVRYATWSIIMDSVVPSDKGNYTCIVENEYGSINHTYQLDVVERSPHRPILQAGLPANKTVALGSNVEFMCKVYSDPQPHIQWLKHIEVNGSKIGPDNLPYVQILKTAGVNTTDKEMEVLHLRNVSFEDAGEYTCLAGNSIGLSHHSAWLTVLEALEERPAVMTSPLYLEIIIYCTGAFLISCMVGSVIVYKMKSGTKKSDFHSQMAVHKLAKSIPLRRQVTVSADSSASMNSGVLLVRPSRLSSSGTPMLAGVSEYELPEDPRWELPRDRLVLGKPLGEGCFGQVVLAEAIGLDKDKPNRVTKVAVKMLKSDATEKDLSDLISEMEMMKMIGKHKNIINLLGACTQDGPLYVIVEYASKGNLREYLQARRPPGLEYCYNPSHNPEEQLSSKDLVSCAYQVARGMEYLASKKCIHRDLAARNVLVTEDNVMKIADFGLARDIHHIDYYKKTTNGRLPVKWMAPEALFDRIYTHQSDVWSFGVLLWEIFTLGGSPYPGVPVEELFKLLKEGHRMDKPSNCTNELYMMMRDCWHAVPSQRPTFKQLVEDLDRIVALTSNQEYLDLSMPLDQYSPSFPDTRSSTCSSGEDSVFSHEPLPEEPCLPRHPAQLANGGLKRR
Sequence of FGFR3 (P22607 whole entry, looked up): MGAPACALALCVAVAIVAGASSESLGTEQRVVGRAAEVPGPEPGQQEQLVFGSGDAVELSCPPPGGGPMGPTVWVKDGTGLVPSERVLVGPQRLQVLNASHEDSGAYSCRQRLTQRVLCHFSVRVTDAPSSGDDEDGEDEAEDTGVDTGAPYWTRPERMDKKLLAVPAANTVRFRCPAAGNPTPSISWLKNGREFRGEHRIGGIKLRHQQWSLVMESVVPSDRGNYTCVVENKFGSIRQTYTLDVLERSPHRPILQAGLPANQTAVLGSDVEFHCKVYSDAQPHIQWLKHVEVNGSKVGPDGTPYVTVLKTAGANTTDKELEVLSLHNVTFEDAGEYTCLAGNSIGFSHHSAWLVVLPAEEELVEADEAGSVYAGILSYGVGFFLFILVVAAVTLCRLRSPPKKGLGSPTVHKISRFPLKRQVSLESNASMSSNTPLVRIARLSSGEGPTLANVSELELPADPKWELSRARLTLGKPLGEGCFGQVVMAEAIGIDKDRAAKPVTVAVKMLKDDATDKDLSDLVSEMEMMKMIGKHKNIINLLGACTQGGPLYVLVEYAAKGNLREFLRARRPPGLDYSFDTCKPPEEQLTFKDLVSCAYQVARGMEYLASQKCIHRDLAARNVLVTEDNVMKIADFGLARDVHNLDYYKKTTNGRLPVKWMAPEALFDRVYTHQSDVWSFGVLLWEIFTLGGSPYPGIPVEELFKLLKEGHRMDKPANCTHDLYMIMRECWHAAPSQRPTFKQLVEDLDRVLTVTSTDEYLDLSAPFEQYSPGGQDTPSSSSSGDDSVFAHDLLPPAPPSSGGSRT
Sequence of Fyn (P06241 whole entry, looked up): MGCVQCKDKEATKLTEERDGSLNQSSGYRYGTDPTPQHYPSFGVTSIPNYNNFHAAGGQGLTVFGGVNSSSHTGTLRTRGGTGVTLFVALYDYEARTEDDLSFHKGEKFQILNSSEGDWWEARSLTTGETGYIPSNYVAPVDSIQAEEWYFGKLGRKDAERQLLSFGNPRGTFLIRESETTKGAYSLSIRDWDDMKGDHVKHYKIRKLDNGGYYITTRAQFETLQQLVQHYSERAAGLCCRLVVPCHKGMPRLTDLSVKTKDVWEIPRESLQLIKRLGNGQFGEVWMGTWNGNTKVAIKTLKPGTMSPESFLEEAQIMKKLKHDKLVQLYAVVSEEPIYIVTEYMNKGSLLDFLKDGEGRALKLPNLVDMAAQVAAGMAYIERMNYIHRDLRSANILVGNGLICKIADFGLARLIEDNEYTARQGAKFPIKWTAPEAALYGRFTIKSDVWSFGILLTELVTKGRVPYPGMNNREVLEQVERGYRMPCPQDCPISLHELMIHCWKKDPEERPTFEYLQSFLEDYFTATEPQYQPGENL

Sequence	phosphorylation enrichment (AncSZ)	phosphorylation enrichment (EPHB1)	phosphorylation enrichment (EPHB2)	phosphorylation enrichment (FGFR1)	phosphorylation enrichment (FGFR3)	phosphorylation enrichment (Fer (mouse))	phosphorylation enrichment (Fes)	phosphorylation enrichment (Fyn)	phosphorylation enrichment (Hck)	phosphorylation enrichment (Jak2)	phosphorylation enrichment (MERTK)	phosphorylation enrichment (c-Abl (mouse))	phosphorylation enrichment (c-Src)	SH2 binding enrichment (Grb2 SH2)	SH2 binding enrichment (SHP2-C SH2)	SH2 binding enrichment (c-Src SH2)
PNQRRYVFFFS [PTEN_Y174_S170N_YF]	1.89	0.61	0.639	0.731	1.25	0.76	1.65	0.524	0.77	1.22	0.491	1.22	0.677	1.14	1.88	1.23
PNRILYGDFWQ [MYH6_Y717_R721W]	1.1	0.689	0.939	0.555	0.935	0.626	1.29	5.79	2.16	0.999	0.849	0.778	4.24	0.807	0.666	0.467
PSALGYSPSLH [LLGL2_Y40_R45H]	0.639	0.573	0.436	0.48	0.553	0.444	0.823	0.458	0.432	0.71	0.621	0.864	0.631	0.827	0.695	0.466
PSALGYSPSLR [LLGL2_Y40]	0.669	0.769	0.628	0.404	0.46	0.512	0.887	0.75	0.472	0.908	0.712	0.764	0.692	0.958	1.04	0.493
PSPTKYSLSPS [RANBP2_Y785_R784K]	1.19	0.437	0.492	0.515	0.471	0.534	0.669	0.318	0.354	0.725	0.473	0.553	0.514	0.674	0.535	0.41
PSQRHYVFFFS [PTEN_Y174_R173H_YF]	2.04	0.926	0.763	0.759	1.2	0.535	2.72	0.757	0.712	1.92	0.892	1.22	0.787	1.25	1.16	0.896
PSQRHYVYYYS [PTEN_Y174_R173H]	1.71	1.72	0.953	9.38	6.63	1.65	1.63	2.84	2.13	4.48	12.6	1.28	4.77	1.2	3.14	2.03
PSQRPYVYYYS [PTEN_Y174_R173P]	1.44	0.652	0.676	4.69	3.08	0.64	1.09	1.43	1.02	2.58	7.73	1	2.78	1.61	2.81	3.29
PSQRRNVYYYS [PTEN_Y174_Y174N]	0.567	0.397	0.657	1.36	1.41	0.568	0.838	0.837	0.74	0.916	4.42	0.47	0.9	0.923	0.828	1.25
PSQRRYVFFFS [PTEN_Y174_YF]	1.54	0.809	0.655	0.731	1.24	0.735	1.77	0.721	0.476	1.16	0.691	1.27	0.6	1.3	1.64	0.819
PTFKHYANSTQ [SLC12A3_Y70_E68K_YF]	0.651	0.603	0.506	0.574	0.599	0.509	0.774	0.482	0.507	0.455	0.375	0.591	0.365	0.671	0.499	0.335
PTTKTYFPHFF [HBA1_Y43_D48Y_YF]	0.681	0.547	0.716	0.824	0.696	0.864	0.584	0.723	0.672	0.569	0.607	0.453	0.471	1.23	1.01	0.683
PVDTFYDSTRG [DYNC2H1_Y2231_M2227V_YF]	0.973	0.638	0.551	0.423	0.722	0.917	0.95	0.671	0.888	0.939	0.404	1.04	0.671	0.661	0.652	0.503
PVGVLYKVKVY [PTS_Y128]	1.28	1.06	0.877	0.337	1.27	0.699	1.79	0.652	0.687	1.52	0.669	0.914	0.451	0.73	0.584	0.398
PVKSEYPSIKL [NPC2_Y119]	0.456	0.358	0.562	0.579	0.623	0.433	0.822	0.509	0.515	0.557	0.465	0.654	0.364	0.752	0.592	0.68
PVQAPYQKVVA [HBB_Y131_A130P]	0.744	0.543	0.691	0.436	0.429	0.381	0.94	0.539	0.687	0.687	0.691	0.732	0.563	0.8	1.3	0.561
QDLLLYQTHSE [PKHD1_Y255_F253L]	1.86	1.27	1.94	0.713	1.28	1.81	1.54	1.16	1.48	1.61	0.745	0.888	1.77	0.726	0.681	0.394
